US8084228B2, “Nogo-B receptor antagonists” (Yale University, priority 2006, dated 2011)
“Also recorded” adds a separate entry of the source. d = 2'-deoxy (DNA)

Columns and labels:
[1] = target: T1, full-length NgBR (Homo sapiens, UniProt Q96E22); assay: AP-Am-Nogo-B binding after S2 siRNA in cells expressing the full-length NgBR; type: cell-based
T1 construct: expressed in transfected cells
T1 sequence (Q96E22 1-293): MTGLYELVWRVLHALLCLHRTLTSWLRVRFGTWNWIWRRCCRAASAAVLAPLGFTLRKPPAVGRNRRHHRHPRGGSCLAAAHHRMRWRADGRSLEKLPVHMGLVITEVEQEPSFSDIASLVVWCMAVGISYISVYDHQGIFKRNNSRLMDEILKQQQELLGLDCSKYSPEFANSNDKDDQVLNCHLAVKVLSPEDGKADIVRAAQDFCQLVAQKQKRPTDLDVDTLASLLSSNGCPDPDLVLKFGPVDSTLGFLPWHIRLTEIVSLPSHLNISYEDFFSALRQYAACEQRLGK
Method: (§1) To detect AP-Am-Nogo-B binding, cultures were washed with Hanks' balanced salt solution (HBSS) containing 20 mM HEPES, pH 7.5, and 1 mg/mL BSA (HBH). The plates were then incubated with AP-Am-Nogo-B in DMEM containing 20 mM Hepes, pH 7.5, and 1 mg/mL BSA for 2 hours at 4° C. The bound AP-Am-Nogo-B was detected by using the Blue Substrate kit (Vector Laboratories). The blue staining was examined by using the ODYSSEY Infrared Imaging System (Li-Cor, Lincoln, Nebr.) and confirmed by microscopy. Alternatively, the bound AP-Am-Nogo-B was extracted with Triton X-100, and AP activity was colorimetrically quantified by using p-nitrophenyl phosphate (Sigma) as substrate after heat inactivation of endogenous AP. Non-specific binding was determined by measuring binding in the presence of a 100-fold molar excess of recombinant Am-Nogo-B lacking the AP fusion protein. Specific binding was determined by subtracting the non-specific binding from total binding. For determination of apparent Kd, the binding of AP-Am-Nogo-B was measured in triplicate as described above and the Kd value was quantified by using the Scatchard plot program of GraphPad PRISM (one-site binding, linear regression) using the ratio of bound ligand to free ligand as the y axis and bound ligand (pM) as the x axis.
NgBR siRNA oligonucleotides (SEQ ID NOS:2-5) with 3′ dTdT overhangs were synthesized by Qiagen. […]

[2] = test system: HUVEC; assay: AP-Am-Nogo-B binding to HUVEC after siRNA transfection; type: cell-based, human; conditions: 72 hours after siRNA transfection
Method: as §1
(§2) NgBR siRNA oligonucleotides (SEQ ID NOS:2-5) with 3′ dTdT overhangs were synthesized by Qiagen. Control siRNA in experiments refers to a nonsilencing (NS) siRNA (NS forward: UUCUCCGAACGUGUCACGU, SEQ ID NO:7; NS reverse: ACGUGACACGUUCGGAGAA, SEQ ID NO:8) designed and synthesized by Qiagen. HUVEC and CHO stable cell lines were transfected with siRNA by using Oligofectamine. Quantification of NgBR mRNA and protein, ligand binding assay, and migration assay were performed at 72 hours after transfection.

[3] = test system: NgBR protein; assay: NgBR protein level after siRNA transfection of HUVEC; type: cell-based, human; conditions: 72 hours after transfection
Method: Single NgBR cDNA clones were isolated by sib selection and sequenced. A NgBR-HA was created in pIRESneo vector (BD, Palo Alto, Calif.), with the HA tag at the carboxy terminus. To access the physical interaction of NgBR with Am-Nogo-B, 50 μg of solubilized extracts of CHO cells expressing control vector (pIRESneo) or NgBR-HA was incubated with 25 μg of purified Am-Nogo-B or buffer for 2 hours at room temperature. The HA-tagged NgBR was immunoisolated with anti-HA immunobeads (Roche, Indianapolis, Ind.) and associated proteins analyzed by Western blotting. For the Western blots, expression of NgBR-HA was detected by using anti-HA (Roche) and NgBR (Imgenex), respectively, and beta-actin (Sigma) or Hsp90 (BD Biosciences-Pharmingen) was used to control for loading.
as §2

[4] = test system: HUVEC; assay: Tube formation of HUVEC in 3-D collagen cultures (total network length); type: cell-based, human; conditions: Am-Nogo-B 80 nM, HUVEC treated with siRNA
Method: HUVEC were resuspended (final concentration of 1×10^6) in a mixture containing rat tail type I collagen (1.5 mg/mL) 1/10 volume of 10×M199 and 1 M Hepes, neutralized with NaOH. Droplets (0.1 mL each) of the cell/collagen mixture were placed in cell culture dishes and allowed to polymerize for 15 minutes at 37° C. Growth medium containing either vehicle or agonist was then added to each well. HUVEC were allowed to form tube-like structures for 1-2 days. To evaluate tube formation in 3-D cultures, cells were photographed using the program OPENLAB (Improvision) and total-network length, defined as an elongation of cell into tube-like structures typically seen in 3-D cultures, was quantified in five fields for each replicate per experiment by using the measurement tools provided with OPENLAB.

[5] = test system: NgBR mRNA; assay: NgBR mRNA by quantitative PCR after siRNA transfection of HUVEC; type: cell-based, human; conditions: 72 hours after transfection, normalized to 18S
Method: as §2
Total RNA from cells was isolated by using the RNeasy kit (Qiagen). Reverse transcription was then performed by using 100 ng of RNA and the Superscript First-Strand Synthesis System kit (Invitrogen). Real-time PCR analysis was done with the iCycler iQ detection system using the iQ SYBR green Supermix kit (Bio-Rad). The NgBR mRNA level was normalized by housekeeping gene 18S. The following primers were used for NgBR: forward, 5′-[…]-3′ (SEQ ID NO:9) and reverse, 5′-[…]-3′ (SEQ ID NO:10). The following primers were used for 18S: forward, 5′-[…]-3′ (SEQ ID NO:11) and reverse, 5′-[…]-3′ (SEQ ID NO:12).

[6] = test system: HUVEC; assay: Am-Nogo-B-mediated chemotaxis of HUVEC after siRNA transfection; type: cell-based, human; conditions: 72 hours after siRNA transfection
Method: (§3) Cell migration was examined in modified Boyden chambers using 10 nM each of purified recombinant AP, AP fusion of Nogo-66 (AP-Nogo-66) or Am-Nogo-B. The transwell inserts (Costar transwell inserts; Corning) were coated with a solution of 0.1% gelatin (Sigma) in PBS at 4° C. overnight and then air-dried. VEGF at 50 ng/mL (1.1 nM) or recombinant Am-Nogo-B at various concentrations dissolved in medium 199 containing 0.1% BSA was added in the bottom chamber of the Boyden apparatus. HUVEC (200,000 cells) suspended in a 100 μL aliquot of medium 199 containing 0.1% BSA was added to the upper chamber. After 5 hours incubation, cells on both sides of the membrane were fixed and stained with a Diff-Quik staining kit (Baxter Healthcare, Miami, Fla.). The average number of cells from five randomly chosen high-power (×400) fields on the lower side of the membrane was counted.
as §2

[7] = target: T2, NgBR (Homo sapiens, UniProt Q96E22); assay: AP fusion protein binding to COS cells transfected with the isolated NgBR cDNA; design: an isolated cDNA encoding NgBR is 2,636 base pairs encoding an open reading frame of 293 amino acids; expressed in transfected cells; host or cells: COS-7 (A4); conditions: COS cells (FIG. 6)
T2 sequence (Q96E22 1-293): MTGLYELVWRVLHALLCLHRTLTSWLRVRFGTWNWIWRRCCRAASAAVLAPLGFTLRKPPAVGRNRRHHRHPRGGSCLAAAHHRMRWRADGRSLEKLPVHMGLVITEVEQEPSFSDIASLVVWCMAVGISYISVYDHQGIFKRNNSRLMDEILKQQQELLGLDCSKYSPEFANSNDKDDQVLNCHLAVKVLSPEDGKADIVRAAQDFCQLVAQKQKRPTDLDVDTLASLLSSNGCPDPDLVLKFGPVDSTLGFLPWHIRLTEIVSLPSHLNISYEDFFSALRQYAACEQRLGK
Method: as §1
(§4) For expression cloning of Am-Nogo-B receptor, pools of 5,000 arrayed clones from a human heart cDNA library (OriGene Technologies, Rockville, Md.) were transfected into COS-7 cells, and AP-Am-Nogo-B binding was assessed by using AP versus AP-Am-Nogo-B binding and detection of the AP product by near-infrared cell imaging (Li-Cor, Lincoln, Nebr.) or AP activity assays.
Single NgBR cDNA clones were isolated by sib selection and sequenced. […] The HA-tagged NgBR was immunoisolated with anti-HA immunobeads (Roche, Indianapolis, Ind.) and associated proteins analyzed by Western blotting. For the Western blots, expression of NgBR-HA was detected by using anti-HA (Roche) and NgBR (Imgenex), respectively, and beta-actin (Sigma) or Hsp90 (BD Biosciences-Pharmingen) was used to control for loading.

[8] = test system: HUVEC; assay: HUVEC migration in modified Boyden chambers; type: cell-based, human; conditions: 10 nM purified recombinant protein, 5 hours
Method: The migratory response of human umbilical vein endothelial cells (HUVEC) in response to a gradient of recombinant, purified alkaline phosphatase (AP) fusion protein expressing Am-Nogo-B or a recombinant purified Am-Nogo-B was examined. HUVEC were cultured in M199 with 20% FBS and endothelial cell growth supplement (ECGS).
as §3

[9] = test system: HUVEC; assay: Binding of AP fusion proteins to the surface of HUVEC; design: species or system human; conditions: HUVEC (FIGS. 12, 15)
Method: as §1

[10] = target: T2, NgBR; assay: AP fusion protein binding to CHO cells expressing NgBR; design: an isolated cDNA encoding NgBR is 2,636 base pairs encoding an open reading frame of 293 amino acids; expressed in transfected cells; conditions: for surface binding of AP fusion domains to NgBR-expressing cells: CHO cells expressing NgBR (FIGS. 11, 14); for binding to CHO cells stably expressing NgBR: increasing concentrations, 2 hours at 4° C.
Method: as §1
A recombinant AP-Am-Nogo-B fusion protein was used to screen a cDNA expression library from human heart (500,000 independent clones) transfected into COS or CHO cells using Lipofectamine 2000 (Invitrogen). COS-7 cells were cultured in high-glucose DMEM with 10% FBS. CHO cells were cultured in MEM-α with 5% FBS.

[11] = test system: CHO cells; assay: AP fusion protein binding to untransfected CHO cells
Method: as §1

[12] = target: T3, Nogo receptor (Homo sapiens, UniProt Q9BZR6); assay: AP fusion protein binding to COS cells transfected with cDNA encoding the Nogo receptor; conditions: COS cells (FIG. 6)
T3 construct: expressed in transfected cells; host or cells: COS-7
T3 sequence (Q9BZR6 27-447): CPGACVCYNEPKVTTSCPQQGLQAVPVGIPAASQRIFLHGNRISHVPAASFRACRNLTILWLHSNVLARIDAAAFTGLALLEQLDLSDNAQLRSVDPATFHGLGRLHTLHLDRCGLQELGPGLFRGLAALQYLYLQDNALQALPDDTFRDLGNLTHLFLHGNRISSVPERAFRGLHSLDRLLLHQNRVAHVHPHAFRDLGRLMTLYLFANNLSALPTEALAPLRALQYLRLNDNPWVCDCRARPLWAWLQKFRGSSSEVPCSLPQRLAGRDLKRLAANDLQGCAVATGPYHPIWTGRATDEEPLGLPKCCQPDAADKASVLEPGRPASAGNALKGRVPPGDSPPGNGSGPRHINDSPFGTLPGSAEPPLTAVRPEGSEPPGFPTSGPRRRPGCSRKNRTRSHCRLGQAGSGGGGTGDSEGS
Method: as §1, §4

Molecule: S2: siRNA targeting the 3' untranslated region of NgBR; forward GGAAAUACAUAGACCUACA, reverse UGUAGGUCUAUGUAUUUCC (SEQ ID NO: 4, 5) (3' dTdT, sugars by position and backbone not given here)
- binding of AP-Am-Nogo-B in cells expressing the full-length NgBR [1]: reduced
- binding of AP-Am-Nogo-B to HUVEC [2]: reduced
- NgBR protein level [3]: reduced
- Am-Nogo-B-stimulated increase in tube formation after siRNA [4]: attenuated
- level of NgBR mRNA [5]: reduced
- Am-Nogo-B-mediated chemotaxis of HUVEC [6]: abolished

Molecule: S1: siRNA targeting the coding region of NgBR mRNA; forward CCAGAAUUUGCAAAUAGUA, reverse UACUAUUUGCAAAUUCUGG (SEQ ID NO: 2, 3) (3' dTdT, sugars by position and backbone not given here)
- binding of AP-Am-Nogo-B to HUVEC [2]: reduces
- NgBR protein level [3]: down-regulates
- level of NgBR mRNA [5]: downregulates

B1: alkaline phosphatase (protein, UniProt P05187 23-506, looked up)
Alkaline phosphatase, …: IIPVEEENPDFWNREAAEALGAAKKLQPAQTAAKNLIIFLGDGMGVSTVTAARILKGQKKDKLGPEIPLAMDRFPYVALSKTYNVDKHVPDSGATATAYLCGVKGNFQTIGLSAAARFNQCNTTRGNEVISVMNRAKKAGKSVGVVTTTRVQHASPAGTYAHTVNRNWYSDADVPASARQEGCQDIATQLISNMDIDVILGGGRKYMFRMGTPDPEYPDDYSQGGTRLDGKNLVQEWLAKRQGARYVWNRTELMQASLDPSVTHLMGLFEPGDMKYEIHRDSTLDPSLMEMTEAALRLLSRNPRGFFLFVEGGRIDHGHHESRAYRALTETIMFDDAIERAGQLTSEEDTLSLVTADHSHVFSFGGYPLRGSSIFGLAPGKARDRKAYTVLLYGNGPGYVLKDGARPDVTESESGSPEYRQQSAVPLDEETHAGEDVAVFARGPQAHLVHGVQEQTFIAHVMAFAACLEPYTACDLAPPAGTTD
notes: purified recombinant alkaline phosphatase, control for AP fusion proteins
- binding to COS cells transfected with the isolated NgBR cDNA [7]: not
- HUVEC migration [8]: does not promote
- surface binding of AP fusion domains to HUVEC [9]: did not bind
- surface binding of AP fusion domains to NgBR-expressing cells [10]: did not bind
- binding to CHO cells stably expressing NgBR [10]: not
- binding to CHO cells [11]: minimal binding
- binding to COS cells transfected with Nogo receptor cDNA [12]: do not bind

B2: AP-Am-Nogo-B: purified alkaline phosphatase (AP) fusion protein with residues 1-200 at the amino terminus of Nogo-B (protein)
chain: MEDLDQSPLVSSSDSPPRPQPAFKYQFVREPEDEEEEEEEEEEDEDEDLEELEVLERKPAAGLSAAPVPTAPAAGAPLMDFGNDFVPPAPRGPLPAAPPVAPERQPSWDPSPVSSTVPAPSPLSAAAVSPSKLPEDDEPPARPPPPPPASVSPQAEPVWTPPAPAPAAPPSTPAAPKRRGSSGSVVVDLLYWRDIKKTGV
modifications: left off: small tags and cut ends; large carriers
notes: purified alkaline phosphatase (AP) fusion protein with residues 1-200 at the amino terminus of Nogo-B
- surface binding of AP fusion domains to HUVEC [9]: did
- surface binding of AP fusion domains to NgBR-expressing cells [10]: did
- binding to CHO cells stably expressing NgBR [10]: permits the binding; also recorded: permitted binding
- binding to CHO cells [11]: minimal binding
- binding to COS cells transfected with Nogo receptor cDNA [12]: do not bind
